Test [1] deals with T1, human VEGFA165 (human, UniProt P15692-4 27-191).
T1 construct: Bought protein from two suppliers, treated as one molecule; the supplier is named under assay; also called antigen VEGFA
The experiment in a line: ELISA, coated human VEGFA165, anti-His detection. On the procedure: (§1) Antigen human VEGFA165 (label-free, purchased from Sino Biological, Cat. No.: HPLC-10008-HNAH, hereinafter referred to as VEGFA) was diluted with ELISA coating buffer to a final concentration of 0.3 μg/mL and added to a microplate at 100 μL/well for coating at 4° C. overnight. […] The solution used for antibody dilution was PBS containing 0.1% Tween-20 (pH 7.4), i.e., PBST. After being incubated at 37° C. for 1 h, the microplate was washed 3 times with PBST, and a dilution of His-Tag murine monoclonal antibody (purchased from Proteintech, Cat. No.: 66005-1-Ig) was added. The plate was further incubated at 37° C. for 1 h and washed again. Subsequently, a dilution of HRP-labeled goat anti-mouse IgG antibody (HRP-conjugated Affinipure Goat Anti-Mouse IgG (H+L), purchased from Proteintech, Cat. No.: SA00001-1) was added, and the plate was incubated at room temperature for 45 min. After the plate was washed, 100 μL of TMB (purchased from Tiangen Biotech, Cat. No.: PA107-01) was added to each well for color development at 37° C. for 15 min, followed by the addition of 50 μL of stopping solution. The absorbance at 450 nm (OD450) was measured using a microplate reader.
The experimental procedure was the same as that described in “2.

Test [2] addresses T1, human VEGFA165. Put plainly: SPR Biacore 8K, VEGFA165 on CM5, nanobody analyte, 1:1 fit. On the procedure: Using the Biacore 8K instrument (Cytiva), the antigen VEGFA165 (label-free, purchased from Sino Biological, Cat. No.: HPLC-10008-HNAH) as the ligand was coupled onto a CM5 chip through amino-coupling reagents (EDC and NHS), with the coupling level being about 400 RU. The mobile phase buffer was HBS-EP (0.01 M HEPES pH 7.4, 0.15 M NaCl, 3 mM EDTA, 0.005% v/v Tween 20) during the experiment. […] In the kinetic analysis, the binding time between the antigen and the antibody was 240 s, the dissociation time was 1500 s, and the flow rate was 30 μL/min. In a multi-cycle mode, the chip was regenerated with 100 mM hydrochloric acid.

In test [3] the target is T1, human VEGFA165. The experiment in a line: competitive ELISA, coated VEGFA, competitor VEGFR2-ECD-Fc 1 nM. On the procedure: (§2) Antigen VEGFA was diluted with ELISA coating buffer (final concentration of […]) and added to a 96-well microplate at 100 μL/well for coating at 4° C. overnight. […] The plate was incubated at 37° C. for 1 h and washed 3 times with PBST. Subsequently, a dilution of HRP-labeled goat anti-human IgG antibody (HRP-conjugated Goat Anti-Human IgG, purchased from Proteintech, Cat. No.: A21050) was added, and the plate was further incubated at room temperature for 45 min. After the plate was washed, 100 μL of TMB (purchased from Tiangen Biotech, Cat. No.: PA107-01) was added to each well for color development at 37° C. for 15 min, followed by the addition of 50 μL of stopping solution. The absorbance at 450 nm (OD450) was measured using a microplate reader.
For orientation: In an ELISA, binding on a coated surface is turned into a signal by an enzyme label.

The target of test [4] is T1, human VEGFA165. The test is described as above. On the procedure: as §2
This is another data set of the same source.

Test [5] has as its target T1, human VEGFA165. Put plainly: ELISA, coated human VEGFA165, anti-His detection. On the procedure: as §1
The source holds these as a separate data set.

In test [6] the target is T1, human VEGFA165. The experiment in a line: ELISA, coated human VEGFA165, anti-His detection. On the procedure: as §1
The source holds these as a separate data set.

Test [7] concerns the target T1, human VEGFA165. Put plainly: ELISA, coated human VEGFA165, anti-His detection. On the procedure: as §1
This is another data set of the same source.

The target in test [8] is T1, human VEGFA165. The experiment in a line: competitive ELISA, coated VEGFA, competitor VEGFR2-ECD-Fc 1 nM. The source holds these as a separate data set.

Positions count from the first letter of the chain named. Like-named read-outs stand apart in the source and are kept apart here.

What is called EC50 is the concentration giving half of the maximal effect. As usually defined, the Kd is a measure of binding affinity in units of concentration. A lower Kd goes with higher affinity. For orientation: koff means the first-order rate constant of dissociation. A high value points to a short-lived complex. The term kon denotes the second-order rate constant of association. In general, IC50 refers to the concentration that gives 50% inhibition.

T1 sequence (P15692 other isoform, or with tags, fused parts or gaps limits assumed): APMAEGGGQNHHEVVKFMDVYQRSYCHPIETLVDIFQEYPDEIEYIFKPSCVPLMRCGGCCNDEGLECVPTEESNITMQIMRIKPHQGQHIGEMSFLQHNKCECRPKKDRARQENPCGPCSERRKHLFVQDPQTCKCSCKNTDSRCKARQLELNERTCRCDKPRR

B1: V1 (VHH)
VHH: QLQLVESGGGSVQPGGSLRLSCEVSGRTFSSYTMGWFRQAPGKEREFVVAISKGGYKYDSVSLEARFTISKDNTKNTVYLQMNSLKPEDTAVYYCAATRAYGSSRLRLADTYEYWGQGTQVTVSS
notes: Monovalent nanobody; tag not described here, the ELISA detects a His tag
B1 displayed an EC50 with human VEGFA165 [1] of 0.52 nM.

B2: V43 (VHH)
VHH: B1 VHH with S30T, A97G, D110N
notes: as for B1
B2 showed an EC50 with human VEGFA165 [1] of 0.31 nM. Besides, in the test with human VEGFA165 [2], binding was characterised by a dissociation constant (Kd) of 0.116 nM, the koff was found to be 8.63e-05 s⁻¹ and the kon stood at 743000 M⁻¹ s⁻¹.

B3: V31 (VHH)
VHH: B1 VHH with S30A, S60A, A97G, D110K
notes: as for B1
Molecule B3 came in with an EC50 in the test with human VEGFA165 [1] of 0.77 nM.

B4: V15 (VHH)
VHH: B1 VHH with S30A, A97G, D110E
notes: as for B1
For B4, the EC50 in the test with human VEGFA165 [1] worked out at 1 nM. This molecule also displayed a half-inhibitory concentration (IC50) with human VEGFA165 [3] of 6.65 nM.

B5: 2V41-9GS (VHH)
chain: QLQLVESGGGSVQPGGSLRLSCEVSGRTFSSYTMGWFRQAPGKEREFVVAISKGGYKYDSVSLEARFTISKDNTKNTVYLQMNSLKPEDTAVYYCAGTRAYGSSRLRLAKTYEYWGQGTQVTVSSGGGGSGGGSQLQLVESGGGSVQPGGSLRLSCEVSGRTFSSYTMGWFRQAPGKEREFVVAISKGGYKYDSVSLEARFTISKDNTKNTVYLQMNSLKPEDTAVYYCAGTRAYGSSRLRLAKTYEYWGQGTQVTVSS
notes: Tandem bivalent nanobody
Regarding B5, in the test with human VEGFA165 [4], the IC50 was 1.97 nM. The molecule further returned an EC50 with human VEGFA165 [5] of 0.27 nM.

B6: 2V36-9GS (VHH)
chain: B5 chain with S30A, K110D, S164A, K244D
notes: Tandem bivalent nanobody
B6: in the test with human VEGFA165 [4], the half-inhibitory concentration (IC50) was 3 nM. For the same molecule, in the test with human VEGFA165 [5], the response was half-maximal at 0.3 nM (EC50).

B7: 2V15-9GS (VHH)
chain: B5 chain with S30A, K110E, S164A, K244E
notes: Tandem bivalent nanobody
For the molecule B7, the EC50 with human VEGFA165 [6] was 0.25 nM; with human VEGFA165 [1] it was 0.24 nM; in the test with human VEGFA165 [5], 0.24 nM; in the test with human VEGFA165 [7] it was 0.22 nM. In addition, the IC50 with human VEGFA165 [4] turned out to be 2.07 nM; with human VEGFA165 [3] it was 3.61 nM; in the test with human VEGFA165 [8], 3.13 nM. Also, the “Maximum inhibition rate (%)” value with human VEGFA165 [8] came to 88.4%.

B8: 2V31-9GS (VHH)
chain: B5 chain with S30A, S60A, S164A, S194A
notes: Tandem bivalent nanobody
Regarding B8, the EC50 with human VEGFA165 [1] and with human VEGFA165 [5] was 0.31 nM in each case.

B9: 2V43-9GS (VHH)
chain: B5 chain with S30T, K110N, S164T, K244N
notes: Tandem bivalent nanobody
As to B9, the EC50 in the test with human VEGFA165 [1] and with human VEGFA165 [5] was 0.17 nM throughout.

B10: 2V1-9GS (VHH)
chain: B5 chain with G97A, K110D, G231A, K244D
notes: Tandem bivalent nanobody
For B10, the IC50 with human VEGFA165 [4] was 2.97 nM. In the test with human VEGFA165 [1], this molecule came in with an EC50 of 0.09 nM. In addition, in the test with human VEGFA165 [5], the EC50 came out at 0.09 nM. In the test with human VEGFA165 [2], this molecule showed a Kd of 0.0224 nM, a koff of 5.05e-05 s⁻¹ and a kon of 2.25e+06 M⁻¹ s⁻¹.

B11: 2V30-9GS (VHH)
chain: B5 chain with E44G, S60A, G97A, E178G, S194A, G231A
notes: Tandem bivalent nanobody
For B11, in the test with human VEGFA165 [4], the IC50 turned out to be 1.41 nM. For the same molecule, the EC50 in the test with human VEGFA165 [5] came to 0.25 nM. In addition, in the test with human VEGFA165 [2], the Kd turned out to be 0.0222 nM, the koff was found to be 9.29e-05 s⁻¹ and the kon turned out to be 4.18e+06 M⁻¹ s⁻¹.

B12: 2V29-9GS (VHH)
chain: B5 chain with K110N, K244N
notes: Tandem bivalent nanobody
B12: the IC50 with human VEGFA165 [4] was 1.77 nM. In the test with human VEGFA165 [5], this molecule came in with an EC50 of 0.31 nM.

B13: 2V33-9GS (VHH)
chain: B5 chain with G97A, G231A
notes: Tandem bivalent nanobody
Consider B13, for which the IC50 with human VEGFA165 [4] is 3.48 nM. Also, the EC50 with human VEGFA165 [5] was 0.32 nM.

The values are drawn from patent US20260234232A1 (QUAERITE BIOPHARM RESEARCH BEIJING, published 2026).
